From US20240158515A1 (Regeneron, published 2024)

Key:
hFGFR3c-hFc [1] = molecular target: T1, hFGFR3c-hFc (human, UniProt P22607 23-375); experiment: competition ELISA: 7 nM hFGFR3c-hFc binding to plate-coated hFGF basic
T1 construct: range 23-375; Bought (R&D Systems); also called dimeric human FGFR3c; R&D Systems 766-FR-050; not shown: Fc portion of human IgG1, amino acids Pro100-Lys330
T1 sequence (looked up): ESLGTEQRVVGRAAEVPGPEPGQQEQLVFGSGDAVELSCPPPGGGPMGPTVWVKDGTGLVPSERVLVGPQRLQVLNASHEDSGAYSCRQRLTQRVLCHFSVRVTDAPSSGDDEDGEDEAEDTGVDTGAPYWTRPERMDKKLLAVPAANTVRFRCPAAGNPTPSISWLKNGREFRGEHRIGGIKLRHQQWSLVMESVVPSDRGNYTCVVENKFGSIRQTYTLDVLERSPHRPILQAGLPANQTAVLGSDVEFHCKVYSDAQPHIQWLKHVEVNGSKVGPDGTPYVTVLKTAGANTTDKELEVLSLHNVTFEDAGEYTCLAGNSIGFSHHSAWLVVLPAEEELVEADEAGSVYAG
Description: (§1) The fixed concentration of hFGFR3b or hFGFR3c proteins was selected to be near the concentration that generated 50% of the maximal binding (EC₅₀ value) to plate-adhered hFGF acidic or hFGF basic protein. […] The plates were then developed using TMB substrate solution (BD Biosciences) according to the manufacturer's recommended procedure and absorbance at 450 nm was measured on a Victor X5 plate reader.
(§2) Binding data were analyzed using a sigmoidal (four-parameter logistic) dose-response model using GraphPad Prism software. […] Percent blocking of FGFR3 antibody at a given concentration was calculated based on the formula shown below.
(§3) The ability of anti-FGFR3 antibodies to block human FGFR3b binding to hFGF acidic protein or hFGFR3c binding to hFGF acidic or hFGF basic proteins was evaluated using a sandwich ELISA-based blocking assay.

[2] = molecular target: T2, human FGFR3b expressed with a C-terminal myc-myc-hexahistidine tag (hFGFR3b.mmH) (human); experiment: SPR Biacore, mAb captured on anti-hFc, 25C
T2 construct: also called REGN3152; monomeric human FGFR3b
T2 chain: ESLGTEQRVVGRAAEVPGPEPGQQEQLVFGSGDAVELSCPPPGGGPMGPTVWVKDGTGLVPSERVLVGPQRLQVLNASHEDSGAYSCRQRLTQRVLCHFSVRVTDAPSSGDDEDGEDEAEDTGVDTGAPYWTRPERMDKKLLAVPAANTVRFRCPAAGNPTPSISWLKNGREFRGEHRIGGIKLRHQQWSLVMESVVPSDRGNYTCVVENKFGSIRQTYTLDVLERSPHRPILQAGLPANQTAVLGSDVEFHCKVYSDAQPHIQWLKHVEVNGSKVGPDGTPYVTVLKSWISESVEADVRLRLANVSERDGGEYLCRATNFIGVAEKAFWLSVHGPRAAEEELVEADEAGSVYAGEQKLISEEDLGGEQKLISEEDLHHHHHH

[3] = molecular target: T3, human FGFR3c expressed with a C-terminal myc-myc-hexahistidine tag (hFGFR3c.mmH) (human, UniProt P22607 23-375); experiment: SPR Biacore, mAb captured on anti-hFc, 25C
T3 construct: also called REGN3155; monomeric human FGFR3c

hFGFR3c-hFc [4] = molecular target: T1, hFGFR3c-hFc; experiment: competition ELISA: 0.4 nM hFGFR3c-hFc binding to plate-coated hFGF acidic
Description: as §1, §2, §3

[5] = molecular target: T4, human FGFR3b expressed with a C-terminal murine Fc tag (hFGFR3b.mFc) (human); experiment: competition ELISA: 4 nM hFGFR3b-mFc binding to plate-coated hFGF acidic
T4 construct: called dimeric; also called REGN3153; dimeric human FGFR3b
T4 chain: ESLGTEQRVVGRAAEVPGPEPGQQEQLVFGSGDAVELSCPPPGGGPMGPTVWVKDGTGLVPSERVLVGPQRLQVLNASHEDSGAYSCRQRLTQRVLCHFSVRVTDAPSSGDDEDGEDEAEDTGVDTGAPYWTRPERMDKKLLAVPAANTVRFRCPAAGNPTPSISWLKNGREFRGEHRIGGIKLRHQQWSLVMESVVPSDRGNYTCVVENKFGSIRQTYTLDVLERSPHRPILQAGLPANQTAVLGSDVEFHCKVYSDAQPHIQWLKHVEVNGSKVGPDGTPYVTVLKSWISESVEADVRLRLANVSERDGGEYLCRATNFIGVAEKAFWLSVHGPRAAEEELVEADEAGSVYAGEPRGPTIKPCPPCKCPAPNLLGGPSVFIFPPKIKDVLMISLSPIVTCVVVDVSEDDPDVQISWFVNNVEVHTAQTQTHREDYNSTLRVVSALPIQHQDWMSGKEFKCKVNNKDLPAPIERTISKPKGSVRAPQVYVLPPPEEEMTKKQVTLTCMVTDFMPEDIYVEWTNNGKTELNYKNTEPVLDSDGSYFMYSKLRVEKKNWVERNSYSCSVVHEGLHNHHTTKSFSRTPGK
Description: as §1, §2, §3

[6] = molecular target: full length human FGFR3b on BaF3 cells (BAF3/FGFR3b, ACL11991) (human, UniProt P22607 23-808); experiment: cell-based or functional assay

B1: REGN6331 (antibody, human IgG1, kappa, V domains shown)
VH: EVQLVESGGGLVQPGGSLRLSCAASGFTFTSTGISWVRQAPGKGLEWVGRIYPTSGSTNYADSVKGRFTISADTSKNTAYLQMNSLRAEDTAVYYCARTYGIYDLYVDYTEYVMDYWGQGTLVTVSS
VL: DIQMTQSPSSLSASVGDRVTITCRASQDVDTSLAWYKQKPGKAPKLLIYSASFLYSGVPSRFSGSGSGTDFTLTISSLQPEDFATYYCQQSTGHPQTFGQGTKVEIKR
notes: hIgG1 comparator; also called COMP6331; anti-FGFR3-hIgG1 comparator
IC50 (hFGFR3c-hFc [1]): 8.9 nM
90 nM hFGFR3b.mmH Bind (RU) [2]: 58.4 RU
Kd [2]: 0.697 nM
t½ [2]: 18.8 min
90 nM hFGFR3c.mmH Bind (RU) [3]: 39.6 RU
Kd [3]: 2.42 nM
t½ [3]: 8.77 min
IC50 (hFGFR3c-hFc [4]): 0.1 nM
% Blocking at 200 nM mAb [5]: 99%
IC50 [5]: 1.5 nM
IC50 [M], BaF3 proliferation (CellTiter-Glo) with 1 nM FGF1 + 5 ug/ml heparin [6]: 5.79e-11 M
Max Blocking (%), BaF3 proliferation (CellTiter-Glo) with 1 nM FGF1 + 5 ug/ml heparin [6]: 97.6%
